B1: 139: XenoMax derived anti-EGFRvIII antibody, SEQ ID NO: 10/25 (antibody, listed as Homo sapiens, V domains shown)
VH: EVQVLESGGGLVQPGGSLRLSCAASGFTFSSYAMSWVRQAPGKGLEWVSAISGSGGSTNYADSVKGRFTISRDNSKNTLYLQMNSLRAEDTAVYYCAGSSGWSEYWGQGTLVTVSS
VL: DIQMTQSPSSLSASVGDRVTITCRASQGIRNNLAWYQQKPGKAPKRLIYAASNLQSGVPSRFTGSGSGTEFTLIVSSLQPEDFATYYCLQHHSYPLTSGGGTKVEIK
B2: 129A7: XenoMax derived anti-EGFRvIII antibody, heavy chain of 124 (SEQ ID NO: 13), light chain of 123 (SEQ ID NO: 29) (antibody, listed as Homo sapiens, V domains shown)
VH: QVQLVESGGGVVQPGRSLRLSCAASGFTLSSYGMHWVRQAPGKGLEWVAVMSYDGSKEDYADSVKGRFTISRDNSENTLYLQMNSLRAEDTAVYYCVSEGYCSSRSCYKYYYYGMDVWGQGTTVTVSS
VL: DIVMTQSPLSLPVTPGEPASISCRSSQSLLYRNGNNYLDWYLQKPGQSPQLLIYLGSNRASGVPDRFSGSGSGTDFTLNISRVEAEDVGHYYCMQALQTPRTFGQGTKVEIK

Experiments:
[1] = target: T1, NR6 Wt cells (NR6 cells expressing EGF receptor) (Homo sapiens, UniProt P00533); assay: Native cell binding assay by FMAT, NR6 Wt cells
T1 construct: expressed in transfected cells; host or cells: NR6 cells (NR6 Wt)
Source text: The same type of native binding assay was done on NR6 Wt cells (NR6 cells expressing EGF receptor) (See Batra et al. Epidermal growth factor ligand-independent, unregulated, cell-transforming potential of a naturally occurring human mutant EGFRvIII gene. Cell Growth Differ. 6(10):1251-9 (1995)) to eliminate the binding is due to binding to Wt receptor (Table 3.8). ABX-EGF was used as a positive control and PK 16.3.1 at the same concentration was used as a negative control antibody. 3 out the 134 NR6 M binders were binding strongly to NR6 Wt cells. 190 of the 244 wells bound EGFRvIII peptide in Elisa were also bound to the native form on cells.
In this example, binding of anti-EGFRvIII antibodies to NR6 M cells was measured. Specifically, unquantitated supernatants of XenoMax derived IgG1 recombinant antibodies were assayed for their ability to bind to NR6 M and NR6 WT cells. Cells were seeded at 10000/well and incubated overnight at 37 C in FMAT 96 well plates. Media was removed and 40 μl mini lipo supernatant (titrated down) was added, the cells were incubated on ice for 1 hr. […] The PK 16.3.1 antibody was used as a negative control. The cells were washed with Cold PBS, secondary antibody was added (SS Alexa antihuman IgG Fc) at 1 μg/ml, 40 μl/well and incubated on ice for 1 hr. The cells were then washed with Cold PBS and fixed and read by FMAT. All antibodies were tested for specificity for binding by counter screening against NR6 WT cells.

EGFRvIII-peptide-OVA = target: T2, EGFRvIII-peptide-OVA (Homo sapiens, UniProt P00533, DELINS30-297G); assay: B-cell culture supernatant ELISA on EGFRvIII-peptide-OVA; format: binding
T2 construct: 207 μg of EGFRvIII PEP3 was reduced; host or cells: synthetic peptide, chemical conjugation
Protocol: B-cells from the above-discussed animals were harvested and cultured. Those secreting EGFRvIII-peptide specific antibodies were isolated as described in Babcook et al., Proc. Natl. Acad. Sci. USA, 93:7843-7848 (1996). ELISA was used to identify primary EGFRvIII-peptide-OVA-specific wells. About 5 million B-cells were cultured from XenoMouse animals in 24596 well plates at 500 or 150 or 50 cells/well, and were screened on EGFRvIII-peptide-OVA to identify the antigen-specific wells.
(§1) 244 of EGFRvIII-peptide-OVA-Elisa positive wells of OD >0.5 were screened again on EGFRvIII-peptide-OVA and on OVA to confirm that they were EGFRvIII-peptide specific.

[2] = target: T3, EGFRvIII expressing cells (H1477) (Homo sapiens, UniProt P00533, DELINS30-297G); assay: Selectivity for EGFRvIII expressing cells compared to ABX-EGF; format: binding
T3 construct: host or cells: H1477 cells

[3] = target: T4, EGFRvIII receptor in NR6 M cells (Homo sapiens, UniProt P00533, DELINS30-297G); assay: Internalization of EGFRvIII receptor by recombinant mAbs (FACS); format: cell-based; conditions: 0.25 μg/ml antibody, 1 hr
T4 construct: NR6 M cells stably expressing full length EGFRvIII; expressed in transfected cells; host or cells: NR6 cells (NR6 M)
Protocol: XenoMax derived IgG1 recombinant antibodies were expressed, purified and quantitated as described previously. Antibodies were further assayed for their ability to internalize the EGFRvIII receptor in NR6 M cells. […] The cells were washed with cold 10% FCS in PBS and secondary antibody (SS Alexa antihuman IgG Fab) at 3 μg/ml Fab was added and incubated for 7 mins on ice. The cells were washed with cold 10% FCS in PBS once and then resuspended in cold media. Next, two sets of the triplicate were incubated at 37° C. and the remaining set was incubated at 4° C. for 1 hr. After that the cells incubated at 4° C. and one set of the cells incubated at 37° C. were treated with glutathione (as previously mentioned) for 1 hr on ice. Then the cells were washed and resuspended in 100 μl of cold 1% FCS in PBS and analyzed by FACS. The % internalization was calculated from the geometric mean obtained from the FACS analysis [(mean at 37° C. with glutathione−mean at 4° C. with glutathione)/(mean at 37° C. without glutathione−mean at 4 C with glutathione)].

[4] = target: T5, native form of EGFRvIII stably expressed on NR6 cells (NR6 M cells) (Homo sapiens, UniProt P00533, DELINS30-297G); assay: Native cell binding assay by FMAT, NR6 M cells; conditions: total fluorescent intensity
T5 construct: NR6 M cells stably expressing full length EGFRvIII; expressed in transfected cells; host or cells: NR6 cells (NR6 M)
Protocol: EGFRvIII peptide-OVA-Elisa positive well supernatants were analyzed for their ability to bind to the native form of EGFRvIII stably expressed on NR6 cells (NR6 M cells) (See, Batra et al. Epidermal growth factor ligand-independent, unregulated, cell-transforming potential of a naturally occurring human mutant EGFRvIII gene. Cell Growth Differ. 6(10):1251-9 (1995)). NR 6 M cells were seeded at 8000 cells per well and incubated over night in 96 well FMAT plates. Media was then removed leaving 15 μl in the well. 15 μl B-cell culture supernatants were added and 15 μl anti-human IgG Fc Cy5 at 1 μg/ml final concentration added to wells. It is then left incubated at 4° C. for 2 hours. The cells were washed with 150 μl PBS, and fixed before reading on FMAT. The results were expressed as total fluorescent intensity (Table 3.8).

OVA = target: T6, OVA (Gallus gallus, UniProt P01012); assay: B-cell culture supernatant ELISA on OVA (specificity control); format: binding; conditions: Table 3.8
T6 sequence (P01012 1-386): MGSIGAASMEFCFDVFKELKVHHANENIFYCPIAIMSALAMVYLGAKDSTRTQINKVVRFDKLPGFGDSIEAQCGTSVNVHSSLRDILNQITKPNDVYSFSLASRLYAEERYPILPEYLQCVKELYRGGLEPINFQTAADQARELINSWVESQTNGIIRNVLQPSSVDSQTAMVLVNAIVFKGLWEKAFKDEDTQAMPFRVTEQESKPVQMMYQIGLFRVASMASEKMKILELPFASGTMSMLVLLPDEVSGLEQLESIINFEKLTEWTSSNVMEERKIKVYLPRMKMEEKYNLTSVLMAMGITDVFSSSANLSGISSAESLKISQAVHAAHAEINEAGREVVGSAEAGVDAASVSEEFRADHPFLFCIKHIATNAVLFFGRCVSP
Source text: as §1

[5] = target: T7, EGFRvIII receptor on NR6 M cells (Homo sapiens, UniProt P00533, DELINS30-297G); assay: Internalization assay (FMAT, glutathione) of B cell culture supernatants; format: cell-based
T7 construct: NR6 M cells stably expressing full length EGFRvIII; expressed in transfected cells; host or cells: NR6 cells (NR6 M)
Protocol: The top 60 native binding B cell culture supernatants were further assayed for their ability to internalize the receptor. NR6 M cells were seeded at 8000 cells/well into 96 well FMAT plates and incubated overnight. Media was removed and 10-15 μl B-Cell culture supernatant in a total volume of 30 μl media, in duplicate was added. Next, 15 μl of secondary antibody (SS Alexa 647 anti-human IgG Fab at 1.5 μg/ml final concentration) was added and the mixture was incubated on ice for 1 hr. An irrelevant B-Cell Culture supernatant was used to see the effect of the culture media. Human anti-EGFRvIII mAb 13.2.1 was used as a positive control starting at 1 μg/ml (final concentration) and negative control was PK 16.3.1 (human anti-KLH IgG2 antibody) at the same concentration. After incubation, the cells were washed with cold PBS, 50 μl media was added to all of the wells, one of the duplicates were incubated at 37° C. for 30 mins while the other duplicate remained on ice. After the incubations media was removed, 100 ul of cold 50 mM glutathione was added to the set incubated at 37° C. and 100 μl of cold media added to the other set, both sets were then left on ice for 1 hr. The cells were then washed with 100 μl cold PBS and then fixed with 1% paraformaldehyde and read in FMAT. The results were expressed as % internalized, calculated as total fluorescence in the presence of glutathione/total fluorescence in the absence of glutathione×100.

Molecule	cross-reactivity with wild type EGFR ([1]; XenoMax approach, in words)	binding with the pep3 (EGFRvIII-peptide-OVA; XenoMax approach, in words)	selectivity for EGFRvIII expressing cells (H1477) as compared to ABX-EGF [2]	FACS Geometric mean With glutathione 4° C. [3]	FACS Geometric mean With glutathione 37° C. [3]	FMAT native binding to NR6 Wt cells ([1]; total fluorescent intensity)	1′ VIII-pep-OVA OD (EGFRvIII-peptide-OVA; Table 3.8)	2′ VIII-pep-OVA OD (EGFRvIII-peptide-OVA; Table 3.8)	FMAT native binding to NR6 M cells [4]	OVA OD (OVA)	% internalized, (glut+/glut−) × 100 ([5]; 37° C. for 30 mins)	With glutathione FL1xcount ([5]; 37° C. for 30 mins, 50 mM glutathione)	No glutathione FL1xcount ([5]; kept on ice, no glutathione)
B1	limited cross-reactivity with wild type EGFR	highly specific	superior selectivity	4.88	19.23								
B2						0	2.1501	2.8208	84024	0.1515	31.5%	8708	27648
